{"source": "paper PMC7467569", "about": "“The Progesterone 5β-Reductase/Iridoid Synthase Family: A Catalytic Reservoir for Specialized Metabolism across Land Plants” (ACS Chemical Biology, 2020)", "proteins": {"B1": {"name": "Catharanthus roseus 5 (PRISE5, ISY) (Catharanthus roseus) (protein)", "chain": "MSWWWKRSIGAGKNLPNQNKENGVCKSYKSVALVVGVTGIVGSSLAEVLKLPDTPGGPWKVYGVARRPCPVWLAKKPVEYIQCDVSDNQETISKLSPLKDITHIFYVSWIGSEDCQTNATMFKNILNSVIPNASNLQHVCLQTGIKHYFGIFEEGSKVVPHDSPFTEDLPRLNVPNFYHDLEDILYEETGKNNLTWSVHRPALVFGFSPCSMMNIVSTLCVYATICKHENKALVYPGSKNSWNCYADAVDADLVAEHEIWAAVDPKAKNQVLNCNNGDVFKWKHIWKKLAEEFGIEMVGYVEGKEQVSLAELMKDKDQVWDEIVKKNNLVPTKLKEIAAFWFADIAFCSENLISSMNKSKELGFLGFRNSMKSFVSCIDKMRDYRFIP", "notes": "codon-optimized gene from earlier study in pOPINF, N-terminal His6 tag (no cleavage told), E. coli"}, "B2": {"name": "Arabidopsis thaliana 1 (PRISE1) (Arabidopsis thaliana) (protein)", "chain": "SWWWAGAIGAAKKKLDEDEPSQSFESVALIIGVTGIVGNSLAEILPLSDTPGGPWKVYGVARRPRPTWNADHPIDYIQCDVSDAEDTRSKLSPLTDVTHVFYVTWTNRESESENCEANGSMLRNVLQAIIPYAPNLRHVCLQTGTKHYLGPFTNVDGPRHDPPFTEDMPRLQIQNFYYTQEDILFEEIKKIETVTWSIHRPNMIFGFSPYSLMNIVGTLCVYAAICKHEGSPLLFPGSKKAWEGFMTASDADLIAEQQIWAAVDPYAKNEAFNCNNADIFKWKHLWKILAEQFGIEEYGFEEGKNLGLVEMMKGKERVWEEMVKENQLQEKKLEEVGVWWFADVILGVEGMIDSMNKSKEYGFLGFRNSNNSFISWIDKYKAFKIVP"}, "B3": {"name": "Arabidopsis thaliana 2 (PRISE2) (Arabidopsis thaliana) (protein)", "chain": "GSENGSLMRRNEVDENVALIFGVTGLVGREIVKTLLMSKPGWRIYGVARNPEINSMTKMYNFISCDLLNASETKQRLSPLQDIVSHVFWVTWSGEFPLDTDECCVQNKTMLMNALDAILPNAKRLKHFSLQTGMKHYVSLVEETMARGEGSSLYYYSEECPRKSSGKNFYYVLEDLLKEKITRSSVVWSVQRPGLLMGSSSRTLYNFMGSLCVYGAMCKYLNLPFVFGGTRECWEESYIDGSDSNLVAEQHIFAATSGKVREKGEAFNAINGVGFTWKEIWPEIGKKLGVQVNETTMFDEGFWFGREMVERKHVWDEIVVKEKLVRTEIEDLANWYFLDALFRCPFKLLGKREKVDRFGFKRKYRTLDSVLYWIDVMRDEKLIPL"}, "B4": {"name": "Coccomyxa subellipsoidea PRISE (Coccomyxa subellipsoidea C-169) (protein)", "chain": "GYVALIAGVTGVTGRNLALHLQNCDRWDAVYGGSRRPCGLGGKVKDLRMDLDNKTSLVDTLKGAQDVTHLFFCAYRPTESAATDVTTNFGMFKNVIEAGEGAGLKLKHVSFLSGTKWYGVHIGPVKTPSREDDPRAMSPNFYYDMEDYCIARVTKGADWTWSSVRPNPVCGFSTGSAMNLTMTIAVYASICKELGLPFRFPGSPQAYNVLLEVVDADLLACSMEYISTQPHAGNTSYNVSNGDVFRWSEVWPKLAAFFELPLAEPQKFSMTTMLAYHECVWQKLVEKHGLSKEVASYKDVATWGFGDWVFGQEKDWFSDVNKLRRTGFQEQNLDSAEMFLRQFKELRAAKLIP", "notes": "full-length synthetic gene in pOPINF, N-terminal His6 tag (no cleavage told), E. coli"}}, "experiment_in_all_cases": "purified protein", "key": {"purified protein [1]": {"substrate": "C/C(C=O)=C\\CC/C(C)=C/C=O", "assay_type": "biochemical, Catharanthus roseus", "settings": "250 μM NADPH, 50 mM HEPES/NaOH pH 7.0, 100 mM NaCl, 25 °C, 0.1% tetrahydrofuran"}, "purified protein [2]": {"substrate": "C/C(C=O)=C\\CC/C(C)=C/C=O", "settings": "250 μM NADPH, 50 mM HEPES/NaOH pH 7.0, 100 mM NaCl, 25 °C, 0.1% tetrahydrofuran"}, "purified protein [3]": {"substrate": "CC(=O)[C@H]1CC[C@H]2[C@@H]3CCC4=CC(=O)CC[C@]4(C)[C@H]3CC[C@]12C", "settings": "250 μM NADPH, 50 mM HEPES/NaOH pH 7.0, 100 mM NaCl, 25 °C, 1.5% ethanol"}, "purified protein [4]": {"substrate": "C/C(C=O)=C\\CC/C(C)=C/C=O", "assay_type": "biochemical, Coccomyxa subellipsoidea", "settings": "250 μM NADPH, 50 mM HEPES/NaOH pH 7.0, 100 mM NaCl, 25 °C, 0.1% tetrahydrofuran"}, "purified protein [5]": {"substrate": "CC(=O)[C@H]1CC[C@H]2[C@@H]3CCC4=CC(=O)CC[C@]4(C)[C@H]3CC[C@]12C", "assay_type": "biochemical, Coccomyxa subellipsoidea", "settings": "250 μM NADPH, 50 mM HEPES/NaOH pH 7.0, 100 mM NaCl, 25 °C, 1.5% ethanol"}}}
{"protein": "B1", "values": [{"measurement": "Km", "setting": "purified protein [1]", "value": "8.5 ± 1.5", "unit": "µM"}]}
{"protein": "B2", "values": [{"measurement": "Km", "setting": "purified protein [2]", "value": "41.8 ± 2.75", "unit": "µM"}, {"measurement": "kcat", "setting": "purified protein [2]", "value": "0.155 ± 0.004", "unit": "s⁻¹"}, {"measurement": "kcat/Km", "setting": "purified protein [2]", "value": 3710, "unit": "M⁻¹ s⁻¹"}, {"measurement": "Km", "setting": "purified protein [3]", "value": "6.0 ± 2.5", "unit": "µM"}]}
{"protein": "B3", "values": [{"measurement": "Km", "setting": "purified protein [3]", "value": "5.7 ± 2.3", "unit": "µM"}]}
{"protein": "B4", "values": [{"measurement": "Km", "setting": "purified protein [4]", "value": "7.0 ± 1.6", "unit": "µM"}, {"measurement": "kcat", "setting": "purified protein [4]", "value": "0.025 ± 0.001", "unit": "s⁻¹"}, {"measurement": "kcat/Km", "setting": "purified protein [4]", "value": 3580, "unit": "M⁻¹ s⁻¹"}, {"measurement": "Km", "setting": "purified protein [5]", "value": "23.6 ± 5.8", "unit": "µM"}]}
